Paper PMC4405695 (2015)

Target: GST-Rab6A Q72L (UniProt P20340 1-208, Q72L)
Assay: GTPγS-loaded Rab6A

GST-Rab6A Q72L, sequence (P20340 whole entry Q72L): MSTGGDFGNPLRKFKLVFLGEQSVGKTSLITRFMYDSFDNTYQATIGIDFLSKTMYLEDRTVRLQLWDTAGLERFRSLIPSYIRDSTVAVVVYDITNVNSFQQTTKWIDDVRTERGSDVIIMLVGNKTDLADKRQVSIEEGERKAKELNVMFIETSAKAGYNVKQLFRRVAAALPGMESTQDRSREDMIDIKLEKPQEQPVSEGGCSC

- Kd: 170 nM
B1: KIF1C-355-His (domain or fragment)
chain: MAGASVKVAVRVRPFNARETSQDAKCVVSMQGNTTSIINPKQSKDAPKSFTFDYSYWSHTSTEDPQFASQQQVYRDIGEEMLLHAFEGYNVCIFAYGQTGAGKSYTMMGRQEPGQQGIVPQLCEDLFSRVSENQSAQLSYSVEVSYMEIYCERVRDLLNPKSRGSLRVREHPILGPYVQDLSKLAVTSYADIADLMDCGNKARTVAATNMNETSSRSHAVFTIVFTQRCHDQLTGLDSEKVSKISLVDLAGSERADSSGARGMRLKEGANINKSLTTLGKVISALADMQSKKRKSDFIPYRDSVLTWLLKENLGGNSRTAMIAALSPADINYEETLSTLRYADRTKQIRNTVSVN
